Measured values taken from the DeepSol protein solubility set.

assay: soluble on expression in E. coli; label from the status in PepcDB or PDB records

Q: With “SLKYVDEFRNGDYAKTLVRLIQKLTKKKINIMEICGSHTMAIFRYGIKDILPSNIRLISGPGCPVCVTSQGYIDTALELSLSREVIIATFGDMIRVPGTKTSLMKRKAEGADIKIVYSPMDALTLAENNPLKKVVFLSVGFETTTPITAITILEAKKRGVKNIFFLTSNKMVPPVMRTLVEDKELNITGFLLPGNVSAIIGKKPYEFLSSEYNVSGVVTGFEPLDILKGLKVLIDIINNNASVIVNEYKRVVRDEGNVTALRYIKEVFEVTDSTWRGIGNIEKSGYKINTEYEQFDAVKQFNINYKECDSSSECRCGDILKGKITPIECSLFKKACTPDHPVGSCMVSYEGVCAAYYKFLNT” as the sequence, how does the “soluble on expression in E. coli” value read?
A: soluble

Q: With “GPGSMFQRSLWRFFAHLVREVDTAGFAGDFRRLHHVGAASTQTQAREARHAACNVLFCGHHGTGKLNLLKAIGLQCEKKGQRVAFVSADNQRAARLDGYLINFFIGMRVSRDELPSQEQLEGTLERHVRLVESTFASSFPSLRNIDVLILDALELVQPTVLLSMDAVARRLRGQPRTPFGGLRVYAAADFWRLPVHPTSDTGGYLFQLEQWEVLFPLQTLLRKSHVQKEEELRRLTELAFYGALTLPQMKELEKLSMKEKPESRLFSWSSSTMEAEKSTATATEGEDEEGEIEEEDAMSIAQWTSFPGESAAADLPDGPEGALEATKDDEGAVNDPAAGQTSLSSSSSALALLNDDMASNSFVATRMMLRFPRQPAVKEMPLRYRQLKRTEMGNFLVNMLVHSSSATSVGLVDSLSVDVGSRVHLLLDGQEHYGVPGGAVGEVMQVGPHFLSIHFPREHRTVDIPRMRVVCYHPFYPEIRYELQQFPVFPRKRICPMNILTYPHAFFVNLNGRRMADTNDLGNLLAHQRSFADFTTRNTSDFANLDGMVHEPTRIYYHKISGKPISTAREQWCRNCKQFVPTDSFFEHWATCVHSVRWCIDCNQTVSLELLGPHREKHQVVLCLDCGRPVEWRHWEGHRLSCGPMMREVSTDNQFIPLRTRQLALEMGLDKRDLHTVASITKSSLPKPREGVL” as the sequence, how does the “soluble on expression in E. coli” value read?
A: not soluble

Q: Which “soluble on expression in E. coli” value does the source give for “MGLQTYNAKRSFDKTPEPKGTKAEKPGSSFVIQKHDARRLHYDFRLEMDGVLKSWAVTRGPSLDPEDKRLAVHVEDHPLSYGDFEGVIPKGQYGGGTVIVWDRGIWQPIGDAGKGYRKGHLEFELEGEKLKGRWHLVRMHGKPGESRENWLLIKGDDLEHHHHHH” here?
A: not soluble

Q: With “MVDIPAGEWQTDACPGWKEGRVCPPEKYLRQTLQIAPFQLSATAVTFAQWDACVDDGGCQEPDTGWAYQTRPNQPPCQAGSPCNYPYDEGWGRGDRPVIHVSWNDAQRYVDWLSQKTGQRYRLPTSEEWEYAAAAGSHARFAWGTKLGKNRGNCNGCGSRWDGKKTAPVASFAPNRFGLYDMVGNVSEWVSTCVPIRSKPGEDNQTCMAYLYRGGAWSYDAKSVGIDTYHSIDADFRANYIGFRVARLEHHHHHH” as the sequence, how does the “soluble on expression in E. coli” value read?
A: not soluble

Q: For “MLLENFYKIIHIKEREDGKQEIEIELNPGHVLYQGHFPGQPVVPGVCTLQIIKESAEQIASQPLQYVQIASSKFLSAINPLETPLLQLFIRLEKTEEHLFKLQAEGICNGKEFIKLKAVLMASKYQLEHHHHHH”, which “soluble on expression in E. coli” value is on record?
A: soluble

Q: With “MGHHKAMPYADVAAFIIELRKREAVAATALEFTILTAARSGETLGAKWHEIDWKDKIWTVPAERMKAAREHRVPLSSRTITILKKLAEFGSDENSFVFPGQKPGKPLSVMAMDMVLRRMEVDVTVHGFRSSFRDWCGEVSNFPRDVAEAALAHLEHHHHHH” as the sequence, how does the “soluble on expression in E. coli” value read?
A: soluble

Q: With “MAHHHHHHMDGGVVKTILRKGEGGEENAPKKGNEVTVHYVGKLESSGKVFDSSRERNVPFKFHLGQGEVIKGWDICVASMTKNEKCSVRLDSKYGYGEEGCGESIPGNSVLIFEIELISFREAKKSIYDYTNEEKIQAAFDLKEEGNDFFKKNEIDEAISKYKEALDLFIHAEDWDGDLAEKKKNIEIICNLNLSTCYNKSKDFPNAIAHASKVLKIEKNNVKALYKLGVANMHFGFLEVAKENLYKAASLSPNNVEIRNSYDACLSKLKEARKRDKLTFGGMFDKGI” as the sequence, how does the “soluble on expression in E. coli” value read?
A: not soluble

Q: Which “soluble on expression in E. coli” value does the source give for “MGSDKIHHHHHHMNLKKVVNEIRNFEGILRKIAIKDVVETFDFNDEDYEFDIIVDFGDDAAVIGIDGDNAILLAADGIWGKLLEADPWWAGYCSVLVNCKDIAAMGGKCVGMTNIISIKDKDICREVLKGVKDGVKKFGVPMVGGHTHPDAMCNVLDVSITGIAKKDCILRSDNAKIGDKIIFAYDLVGQIYKSFPLNWDTTTMKSKKLVRAQMDALVQIAENKLANSCKDISNPGAIGTLGMLLEVSRKGGVVDITKIPKPEEIDLIHWLKVYPGSGYVLTAKEENFKEIKDIFEDVEMTAEICGEVIAEKKLYITDGENKEVVFDFEKEFICGC” here?
A: not soluble

Q: For “MEKSKPNVVFVLGGPGSGKGTQCANIVRDFGWVHLSAGDLLRQEQQSGSKDGEMIATMIKNGEIVPSIVTVKLLKNAIDANQGKNFLVDGFPRNEENNNSWEENMKDFVDTKFVLFFDCPEEVMTQRLLKRGESSGRSDDNIESIKKRFNTFNVQTKLVIDHYNKFDKVKIIPANRDVNEVYNDVENLFKSMGF”, which “soluble on expression in E. coli” value is on record?
A: soluble

Q: With “GPGSMKVSSFIVQLRPGFFRLMIHAKPGARSTALAAQPQALDEALEVRLAAPPVDGKANTELVEFMQTLLEQQLATLRITQKQHLRKSGCEDGEDEVYTYEHYAKKKKSKNNKRMNEDSKSGEAKVEYPDDKVRVSLVSGLTSRNKVLEVTFPGTEEDLLAVLKSADFS” as the sequence, how does the “soluble on expression in E. coli” value read?
A: soluble

Q: For “MVGHKYPVKCLEVDKSKGRLVVSHRRAMAERQMEHLKTGALVEGTVQGVKPYGVFVDVFGTSGLLHISQISHDQVANIQSLFLPGEKVKCMVVSFDKQRGRISLSTKALEPHPGDMLRNKQLVYEKAEEMALSYNQRMDSPVRSKNTTSSSTDDIIAGLDIGSLDDLDPILFGTHTNSSNSNTHSDHLKQDSMNGTIPESDI”, which “soluble on expression in E. coli” value is on record?
A: not soluble

Q: For “MSLKLIATDMDGTLLRSNGEFPNEFPLILDSLLNKNIMFSVASGRQYFTLKDNMAGFEDKITFIAENGAFIVKDGKELFAKTLDRDMLSKVVDDAKKVPDCKLVLCGKKSAYVLDKSSAFIEEVEKYYHKSAVVNSLDEIDDEFFKIAICDYKGSANNSNVLLSPKWGKLFQLTVSGDIWLDIGRNDVNKGTAIKFLQDKFNINENETMAFGDYYNDVSMLQSVYHSYVMENAPDGVKKHGRFIAKSNDESGVIQVIKNKVLELGAEGHHHHHH”, which “soluble on expression in E. coli” value is on record?
A: soluble

Q: For “MFQNLLENSKKFWIVLEPYGKFKKMLLRDLRGETHRGETRRGETRRGETHRGETHRGETHRGETHRGETHRGETHRGETYRGETHRGETHRGETHRGKTQNFGGKFKFSVKNILAGNLNFLKKIFWREI”, which “soluble on expression in E. coli” value is on record?
A: not soluble

Q: Which “soluble on expression in E. coli” value does the source give for “MGSDKIHHHHHHMMAPNQFSSGDVIADRRADYARMLAESGDYPAAAELMEQALELAPRWTAGWFRFGEYHEKAGETAKAVAAYEKVAELDAEGLFAAELKLAVLGAAETPEQPPSRYVEGLFDDYADRFETSLVEKLDYSVPQKLAELIGKAATGDAFDTIVDIGCGTGLLGIEIRSLAKRLEGFDISQNMLAKADEKSLYDHLGQADLSLDAEASGLFTPVLTQHRADLVAAADVMMYLGSLETVMPLVSALLKPSGFFAFSVEDAGDEQGFVLRESLRYAHSKSYVIDLLERSGFSPMEIRKTTIRKDAGKPLSGILFLARAKA” here?
A: not soluble

Q: For “MGSDKIHHHHHHMREYIKEGIKLAVTNIPEDVVSAIREALEREESKIAKYNLEMILKAIDISRKEGIPVCQDTGTPIFFVRTNGPINKIYDEIVKGVEIATREVPLRPNALHVLDGKVIGNVPEVHFEPGKETLISILMKGGGSENCTALFPLTPAEGLEGVKNKVIEHVQSCGGKPCPPIIVGIGIASPAEKAIILAKKALLRRISERHPNEKLAKFERELLEEINSLGIGPMGLGGRTTALDVKVEVETRHPASYIVGVVIQCWAHRRAFIKVSEGGVKIWQ”, which “soluble on expression in E. coli” value is on record?
A: not soluble

Q: With “MAIKGLDQAIDNLSRVRKNAIPAASAMTINRVATTAINQSSSQVARETKVRRKLVKERSRLKRATVRNPNAKIIVNRGDLPVIKLGIRMLGRRPNSILKAGQHRYQRAFIQRLKNGRWHVMQRVAGKNRYPIDVVKIPMAAPLKQAFDENVDRIRCERLPGELASALKQQLRIAIKR” as the sequence, how does the “soluble on expression in E. coli” value read?
A: not soluble

Q: With “GSHSMRYFYTAMSRPGRGEPRFIAVGYVDDTQFVRFDSDAASPRTEPRPPWIEQEGPEYWDRNTQIFKTNTQTYRENLRIALRYYNQSEAGSHIIQRMYGCDLGPDGRLLRGHDQSAYDGKDYIALNEDLSSWTAADTAAQITQRKWEAARVAEQLRAYLEGLCVEWLRRYLENGKETLQRADPPKTHVTHHPVSDHEATLRCWALGFYPAEITLTWQRDGEDQTQDTELVETRPAGDRTFQKWAAVVVPSGEEQRYTCHVQHEGLPKPLTLRWEPHH” as the sequence, how does the “soluble on expression in E. coli” value read?
A: soluble

Q: For “MAKKVAICTLLYSRDYLPGALTLAYQLQKLLKHAVVEDEITLCLLIEKKLFGDEFKPQEIALIRSLFKEIIIIEPLKDQEKSIEKNKANLELLKRPELSHTLLKARLWELVQFDQVLFLDADTLPLNKEFFEILRLYPEQTRFQIAAVPDIGWPDMFNTGVLLLIPDLDMATSLQDFLIKTVSIDGADQGIFNQFFNPICNYSKEVLHKVSPLMEWIRLPFTYNVTMPNYGYQSSPAMNFFQQHIRLIHFIGTFKPWSRNTTDYDDHYYQLWRSTQRELYSECHLSNYFTHLQLGNIETETNFYHEPPCLQDLLNHGKRENQKHVDLDITSVDRNASQKSTAEKHDIEKPTSKPQSAFKFDWESTDYLDRVQRAFPKPDT”, which “soluble on expression in E. coli” value is on record?
A: soluble

Q: With “MALTSVSVYELSRLGPPQQPVRRRSNSTKVRRKDAELGSVDRKRNPKRNQIQPQHNESITITYMGRPRSPSVDLPTSPPIPSVIRQRRSSSTVAKKLPQSASNPSFLRKQGSSSSLSNGLWTDCIEVVNEIGVMAKMESRKIRRLRMAVYRRVRISDDEEMVLTASRALSKCHGWTLDTCHDYLPVIIDNIISMDTSNRIIAAEGLAAIADSLGERLVKFAGMNSHRIGVDIAAEERSEKAKACIQLLRSVVRKRDWYYRHLDVESIDRLDATMERLKSI” as the sequence, how does the “soluble on expression in E. coli” value read?
A: not soluble

Q: Which “soluble on expression in E. coli” value does the source give for “MKTLEKRMKALDKRIMKFGKSLEGRLDARLIESALDYIHYSERFLAFEILCTYIEDFDVRLTEQESREISFINKEFEIESTSD” here?
A: not soluble

Q: For “MGSDKIHHHHHHMNTSGDRLRILLRECHLTATDFAANRKITPQHVNNWFKRGVPMARIDEVAELLTVNARWLRSGDGPKHPNESANENTGDDKRMAIQQTRNVLRGDVEIQIYMEVESPHGVGKTVLSEAPGQKIRLPLQVLQTMGIDPKNCMCVAMVGNSMADKIQDGSILGVDRELTQVIDGEIYALEHGGILRVRYLYRLPNGGLRLRSHNDAEYPDEVFSGEDIAREKIRILGWIFWWSTLNSRRNAMLLL”, which “soluble on expression in E. coli” value is on record?
A: not soluble

Q: For “MKTFTVQFHREDDVEAMNVGKLSQEDFDKATEGGTRHLFDLDTNIGYFVFFDAEDNEGKVSYLMLQYEEDNEDPSACYSFELKDFYEFMALYLNDLEFAEEEEMAEDGEEEYGPIHHLAHLLYHIVEKGKTVEV”, which “soluble on expression in E. coli” value is on record?
A: not soluble

Q: Which “soluble on expression in E. coli” value does the source give for “MGSDKIHHHHHHMNYSHFVGLDVGKKTFDASLMSADEKELSHKSFDNTPTGIQSLLDWIAGYHLSLSKLLFCAENMGSYVTELSVSSVSMGFSLALVCPLTIKKSIGLQRGKNDRIDAKRIANYAVLHYRKLELYKLPDKDLVRLRGWIIIRDNLVKQKVSSIKLLETFSWMAKLADVTESISFLEEQLKSIKERILEVEEDMEQLIAASTSLYTNYLLLRSIKGIGIINAIVLLCVTDNFQRFDNPRKFACYCGVAPFEHTSGISIRGKTQTSSLANKEVKVYLTRAAITAISWDPQMKAYYKRKIAEGKHKASVINAVRAKIIARSFAVIRRQTPFVTLAV” here?
A: not soluble
